Where a chain is given by its changes, count along the chain named.
B1: PTA1-WT (dsDNA)
DNA 1: GCCAGTGTAAAATTAGTAACCGTATCTC
DNA 2: GAGATACGGTTACTAATTTTACACTGGC
B2: PTA1-M1 (dsDNA)
DNA 1: GCCAGTGTAAAACTAGTCACCGTATCTC
DNA 2: GAGATACGGTGACTAGTTTTACACTGGC
B3: RsmA-2A (dsDNA)
DNA 1: CAGTAAGCATCTGGGCTGCAAGCGTATA
DNA 2: TATACGCTTGCAGCCCAGATGCTTACTG
B4: RsmA-2 (dsDNA)
DNA 1: CAGTAAGCATCTGGGCTGCAAGCGTATAATGTCTCCAGGTTGTCTCAGCATAAACA
DNA 2: TGTTTATGCTGAGACAACCTGGAGACATTATACGCTTGCAGCCCAGATGCTTACTG
B5: AP1-brlA (dsDNA)
DNA 1: AAAACAATACAATTTACTAAAGTCCACTGGGCA
DNA 2: TGCCCAGTGGACTTTAGTAAATTGTATTGTTTT
B6: AP1-brlA-Mut (dsDNA)
DNA 1: B5 DNA 1 with T15G, A20G
DNA 2: B5 DNA 2 with T14C, A19C
B7: RsmA-2C (dsDNA)
DNA 1: CTCCAGGTTGTCTCAGCATAAACA
DNA 2: TGTTTATGCTGAGACAACCTGGAG
B8: penDE-CRE123 (dsDNA)
DNA 1: AGGTCCTGCATTAGCGTACGCCCCAGGTTTAGATCAAAGTTACGTAATTTATATGTA
DNA 2: TACATATAAATTACGTAACTTTGATCTAAACCTGGGGCGTACGCTAATGCAGGACCT
B9: penDE-CRE123-M1 (dsDNA)
DNA 1: B8 DNA 1 with T40C, T45A
DNA 2: B8 DNA 2 with A13T, A18G
B10: RsmA-2B (dsDNA)
DNA 1: CAGTAAGCATCTGGGCTGCAAGCGTATAATGTCTCCAG
DNA 2: CTGGAGACATTATACGCTTGCAGCCCAGATGCTTACTG
B11: AflR-RsmA (dsDNA)
DNA 1: CGACTGACACAAGAAATAACAATTC
DNA 2: GAATTGTTATTTCTTGTGTCAGTCG

Columns and labels:
[1] = biological target: T1, PcYap1 (Penicillium chrysogenum Wis54-1255 (P. rubens Wis54-1255)) (UniProt B6HDY4); assay: EMSA; settings: LightShift binding buffer 1X, about 10% glycerol, 5 mM MgCl2, 20 fmol biotin probe, 10 ug protein, 20 uL, room temperature 20 min; 5% native PAGE in 0.5X TBE …
T1 sequence: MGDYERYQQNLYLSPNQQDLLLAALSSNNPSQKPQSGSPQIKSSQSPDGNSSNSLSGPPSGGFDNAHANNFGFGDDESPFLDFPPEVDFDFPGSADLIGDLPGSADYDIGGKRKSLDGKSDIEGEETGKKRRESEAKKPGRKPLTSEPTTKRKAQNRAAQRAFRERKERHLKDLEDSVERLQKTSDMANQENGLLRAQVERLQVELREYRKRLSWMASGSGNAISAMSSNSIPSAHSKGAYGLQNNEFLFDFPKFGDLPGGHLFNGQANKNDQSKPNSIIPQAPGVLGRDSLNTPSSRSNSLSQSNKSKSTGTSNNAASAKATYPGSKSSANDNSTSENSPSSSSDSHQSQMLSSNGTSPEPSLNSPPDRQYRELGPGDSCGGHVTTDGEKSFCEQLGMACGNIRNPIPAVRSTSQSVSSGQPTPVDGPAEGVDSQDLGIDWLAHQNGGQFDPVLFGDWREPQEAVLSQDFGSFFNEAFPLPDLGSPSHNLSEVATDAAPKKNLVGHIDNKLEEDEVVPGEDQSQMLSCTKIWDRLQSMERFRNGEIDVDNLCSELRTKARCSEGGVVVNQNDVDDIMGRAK

[2] = biological target: T2, PcRsmA (Penicillium chrysogenum Wis54-1255 (P. rubens Wis54-1255)) (UniProt B6GZ21); assay: EMSA; settings: LightShift binding buffer 1X, about 10% glycerol, 5 mM MgCl2, 20 fmol biotin probe, 10 ug protein, 20 uL, room temperature 20 min; 5% native PAGE in 0.5X TBE …
T2 sequence: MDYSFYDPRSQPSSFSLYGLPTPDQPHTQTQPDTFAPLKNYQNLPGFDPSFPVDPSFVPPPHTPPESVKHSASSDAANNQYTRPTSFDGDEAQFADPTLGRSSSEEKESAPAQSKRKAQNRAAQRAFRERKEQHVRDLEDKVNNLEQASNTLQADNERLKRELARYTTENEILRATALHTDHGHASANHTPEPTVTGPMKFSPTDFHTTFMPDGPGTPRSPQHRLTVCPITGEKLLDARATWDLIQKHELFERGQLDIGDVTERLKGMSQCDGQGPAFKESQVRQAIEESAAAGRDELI

PcRsmA = biological target: T3, PcRsmA (Penicillium chrysogenum Wis54-1255 (P. …, UniProt B6GZ21 1-299)); assay: EMSA; LightShift binding buffer 1X, about 10% glycerol, 5 mM MgCl2, 20 fmol biotin probe, 10 ug protein, 20 uL, room temperature 20 min; 5% native PAGE in 0.5X TBE; pH and salt not given; settings: protein: recombinant; tags: C-terminal c-myc-6xHis; chain copies: 2; label: 3' biotin; blunt
T3 sequence: T2 sequence

PcYap1 = biological target: T4, PcYap1 (Penicillium chrysogenum Wis54-1255 (P. …, UniProt B6HDY4 1-582)); assay: as above; settings: protein: recombinant; tags: C-terminal c-myc-6xHis; chain copies: 2; label: 3' biotin; blunt
T4 sequence: T1 sequence

| Molecule | binding [1] | binding [2] | binding result (PcRsmA) | binding result (PcYap1) |
| --- | --- | --- | --- | --- |
| TGTTTATGCTGAGACAACCTGGAGACATTATACGCTTGCAGCCCAGATGCTTACTGGATGGGGCCGCTGGAGCCAGTGTAAAATTAGTAACCGTATCTCGAAGTCGGAGGGTCTTTGGTGGTCTGAGATTTCAGTCGGTCCGCACCGTGGCATTTGCAGACGGTGCGATCAGGCCAATCGTTGATGCTCGG (double strand) [probe 5] | binds | binds | – | – |
| AACATCGCCGTCGTTGAGTGCACGTTGCCTACTCTCTCGTGGCTTGGCTGGGCCCACGAGCCCGATTGACTCGACGGTGTTACTTGGGTATCTATGGCCCCGTTTTCTGGCACGGTAATGATAAGTACTTACTAGTCTTCGAGCGGGGGAGTGTTGCTCTGCCCGAGCATCAACGATTGGCCTGA (double strand) [probe 4] | no binding | no binding | – | – |
| CCGAGCATCAACGATTGGCCTGATCGCACCGTCTGCAAATGCCACGGTGCGGACCGACTGAAATCTCAGACCACCAAAGACCCTCCGACTTCGAGATACGG (double strand) [dwPta1] | – | no binding | – | – |
| B1 | – | – | no binding | binds |
| B2 | – | – | no binding | no binding |
| B3 | – | – | no binding | – |
| B4 | – | – | binds | – |
| B5 | – | – | no binding | binds |
| B6 | – | – | no binding | no binding |
| B7 | – | – | binds | – |
| B8 | – | – | binds | no binding |
| B9 | – | – | no binding | – |
| B10 | – | – | no binding | – |
| B11 | – | – | binds | – |

From publication PMC8977021, “bZIP transcription factors PcYap1 and PcRsmA link oxidative stress response to secondary metabolism and development in Penicillium chrysogenum”
